In experiment [1] the target is Very late antigen-4 (VLA-4), alpha4beta1 integrin, on the surface of human reticulocytes and mononuclear leukocytes (human) (UniProt P13612). In words: flow cytometry saturation binding on isolated RBCs, individual SCD donors. For orientation: In flow cytometry, cells or beads pass a laser one at a time.
Experiment [2] shares this target. In words: flow cytometry saturation binding on isolated RBCs from 5 SCD donors.
Experiment [3] shares this target. In words: flow cytometry saturation binding on isolated RBCs (reticulocytes) from 5 SCD donors, one-site binding analysis.
For experiment [4] the target is unchanged. In words: cell-based or functional assay.
For experiment [5], the target named is T1, Very late antigen-4 (VLA-4), alpha4beta1 integrin, on the surface of human reticulocytes and mononuclear … (human, UniProt P13612 34-1032; P05556 21-798). Put plainly: cell-based or functional assay.
Experiment [6] addresses T1, Very late antigen-4 (VLA-4), …. In words: flow cytometry saturation binding on isolated RBCs (reticulocytes) from 5 SCD donors, one-site binding analysis. How it is done: Flow cytometry was carried out using the BD FACS Canto II and data analysis was performed with the FACS Diva software. Data for leukocytes was acquired by gating based on forward and side scatter properties and CD45 staining of mononuclear cells. Natalizumab and IgG4 staining of the CD45 positive mononuclear cells were then determined. For erythrocytes, cells were gated for CD235a positive staining and examined for thiazole orange stained reticulocytes. Reticulocyte staining for VLA-4 with either natalizumab or an anti CD29 antibody was then determined and compared to IgG4 or isotype matched control antibody.
Fab arm exchange with endogenous IgG4 in humans, resulting in the production of antibodies that are potentially bispecific (Labrijn AF et al. Nat Biotechnol. 27(8):767-71 2009). This phenomenon has been reported for natalizumab as well, leading to the formation of a monovalent form of the antibody, with only one Fab arm specific for the α-subunit of VLA-4 (Rispens T et al. Anal Biochem. 411(2):271-6 2011; Shapiro RI et al. J Pharm Biomed Anal. 55(1):168-75 2011). To assess the impact of half-antibody exchange of natalizumab on saturation and adhesion of sickle cells, a synthetic monovalent form of natalizumab was used where 1 Fab arm was specific for VLA-4 and the other for CD4. […]

B1: synthetic monovalent form of natalizumab where 1 Fab arm was specific for VLA-4 and the other for CD4 (bispecific antibody, part only; not given: anti-CD4 arm and constant regions, V domains shown, not shown: another chain or arm of the molecule; a dimerising Fc or GST)
VH: QVQLVQSGAEVKKPGASVKVSCKASGFNIKDTYIHWVRQAPGQRLEWMGRIDPANGYTKYDPKFQGRVTITADTSASTAYMELSSLRSEDTAVYYCAREGYYGNYGVYAMDYWGQGTLVTVSS
VL: DIQMTQSPSSLSASVGDRVTITCKTSQDINKYMAWYQQTPGKAPRLLIHYTSALQPGIPSRFSGSGSGRDYTFTISSLQPEDIATYYCLQYDNLWTFGQGTKVEIK
Broadly, the EC50 is the midpoint of the concentration-response curve. For the molecule B1, the fold change of EC50 against the divalent form in experiment [1] lay within 1.7 to 12 fold. The molecule further registered a fold change of EC50 against the divalent form in experiment [2] of 7 fold. For the same molecule, in experiment [3], the EC50 came out at 0.89 µg/mL. For the same molecule, in experiment [4], the IC50 for inhibition of adhesion of reticulocytes in isolated RBC to VCAM-1 is 0.37 µg/mL, the fold change of adhesion-inhibition IC50 against the divalent form amounted to 19 fold and the potency in blocking reticulocyte adhesion to VCAM-1 against divalent natalizumab (from IC50) turned out to be 10 fold.

B2: Natalizumab (antibody, V domains shown)
VH: B1 VH
VL: B1 VL
notes: also called divalent natalizumab; divalent form
Regarding B2, in experiment [5], the “IC50 for blocking adhesion of whole blood leukocytes to VCAM-1 under flow, adult SCD blood” value is 0.05 µg/mL; the “IC50 for blocking adhesion of whole blood reticulocytes to VCAM-1 under flow, adult SCD blood” value worked out at 0.02 µg/mL; the “IC50 for inhibition of adhesion of reticulocytes in isolated RBC to VCAM-1” value turned out to be 0.02 µg/mL. The same molecule yielded an EC50 in experiment [6] of 0.14 µg/mL.

The values are drawn from patent US20170216434A1 (WAYNE STATE UNIVERSITY, published 2017).
